In experiment [1] the target is CRF250-SOSIP, soluble HIV-1 envelope glycoprotein trimer (SOSIP.v7 based on the CRF250 HIV-1 isolate) (HIV-1).
The target is the same in experiment [2]. The experiment in a line: flow cytometry of edited Jeko-1 cells, HDRT by AAV, double staining with CRF250 SOSIP-APC and CRF250 SOSIP-PE.
The target is the same in experiment [3]. Put plainly: flow cytometry of Jeko-1 cells edited with gRNA targeting JH6, staining with CRF250 SOSIP-APC against anti-IgM. A general note: In flow cytometry, cells or beads pass a laser one at a time.
Experiment [4] shares this target. Put plainly: flow cytometry of edited Jeko-1 cells, HDRT as dsDNA, double staining with CRF250 SOSIP-APC and CRF250 SOSIP-PE.
Experiment [5] shares this target. The experiment in a line: flow cytometry of Jeko-1 cells edited at the native heavy-chain locus, double staining with CRF250 SOSIP-APC and CRF250 SOSIP-PE.
Experiment [6] has the same target. Put plainly: flow cytometry of Jeko-1 cells edited at the native heavy and kappa loci, double staining with CRF250 SOSIP-APC and CRF250 SOSIP-PE.
For experiment [7], the target named is 16055-ConM-v8.1ds SOSIP trimer (HIV-1). Put plainly: flow cytometry, primary murine B cells edited in the HCDR3, labeled 16055-ConM-v8.1ds SOSIP against surface IgM.
The target of experiment [8] is CRF250-SOSIP, soluble HIV-1 envelope glycoprotein trimer (SOSIP.v7 based on the CRF250 HIV-1 isolate) (HIV-1). The experiment in a line: flow cytometry of control Jeko-1 cells (RNP without HDRT), double staining with CRF250 SOSIP-APC and CRF250 SOSIP-PE.
The target is the same in experiment [9]. The description is as above. The source holds these as a separate data set.
For experiment [10] the target is unchanged. Put plainly: flow cytometry of control primary murine B cells (RNP without HDRT), double staining with CRF250 SOSIP-APC and CRF250 SOSIP-PE.
Experiment [11] shares this target. Put plainly: flow cytometry of control primary murine B cells (RNP without HDRT), double staining with CRF250 SOSIP-APC and CRF250 SOSIP-FITC.
For experiment [12] the target is unchanged. Put plainly: flow cytometry of control primary murine B cells (RNP of the intron approach without HDRT), double staining with CRF250 SOSIP-APC and CRF250 SOSIP-PE.
For experiment [13] the target is unchanged. The experiment in a line: flow cytometry of control primary murine B cells (RNP without HDRT), upper row (IgH gRNAs), double staining with CRF250 SOSIP-APC and CRF250 SOSIP-PE.
The target is the same in experiment [14]. The experiment in a line: flow cytometry of control primary murine B cells (RNP without HDRT), lower rows (IgK gRNAs), double staining with CRF250 SOSIP-APC and CRF250 SOSIP-PE.
Experiment [15] shares this target. Put plainly: flow cytometry of primary murine B cells edited at native loci, HDRT by AAV, double staining with CRF250 SOSIP-APC and CRF250 SOSIP-PE.
Experiment [16] shares this target. The experiment in a line: flow cytometry of primary murine B cells edited at native loci, HDRT as dsDNA, double staining with CRF250 SOSIP-APC and CRF250 SOSIP-PE.
The target in experiment [17] is SOSIP. The experiment in a line: flow cytometry, APC-labeled SOSIP trimer against anti-IgM.
The target in experiment [18] is CRF250-SOSIP, soluble HIV-1 envelope glycoprotein trimer (SOSIP.v7 based on the CRF250 HIV-1 isolate) (HIV-1). This is another data set of the same source.

“And” between values parts separate entries of the source, which are not always exact repeats. Equal entries are not always repeated. Where two headings read alike, the source gives them in different places.

Regarding “VRC26.25 heavy-chain variable gene introduced at the native heavy-chain locus of Jeko-1 cells (B-cell receptor on the cell surface) (antibody)”, the % of cells in the SOSIP-positive gate was 4.43% and 1.12% in experiment [1]; 37.8% in [2]; 5.24% in [3]; 7.12% in [4]; 7.12% in [5].

With “10-1074 heavy and light chain variable genes introduced at the native heavy and kappa loci of Jeko-1 (antibody)”, the % of cells in the SOSIP-positive gate in [2] is 11.1%; in experiment [4], 3.05%; in experiment [6] it was 3.09%.

As to “B-cell receptors of primary murine B cells edited to express the PG16 HCDR3 (antibody)”, the % of cells in the SOSIP gate in experiment [7] came out at 1.02%.

As for No HDRT (antibody), the % of cells in the SOSIP-positive gate in [8] was 0.24%; in experiment [9] it was 0.12%; in [10], 0.34%; in [11], 0.17%; in experiment [12], 0.58%; in experiment [13], 0.44%. The substance also displayed a % of cells in the SOSIP-positive gate in experiment [14] of 0.45%.

With “VRC26.25-y heavy and light chain variable genes introduced at the native loci of primary murine B cells (B-cell receptor) (antibody)”, the values for the % of cells in the SOSIP-positive gate in experiment [15] and in [16] were 7.55% and 1.78%, respectively.

With “B-cell receptors of primary murine B cells edited to express the HCDR3 of the predicted unmutated common ancestor of the VRC26 family (VRC26-UCA) (antibody)”, the % of cells in the SOSIP gate in experiment [7] was 2.26%.

In the case of “10-1074 heavy and light chain variable genes introduced at the native heavy and kappa loci of primar (antibody)”, the values for the % of cells in the SOSIP-positive gate in experiment [15] and in experiment [16] were 2.38% and 0.95%, respectively.

Consider Negative control (antibody), for which the % of cells above the SOSIP gate line in [17] was 0.12%.

Take “VRC26.25-y heavy chain alone introduced into primary murine B cells (B-cell receptor with endogenous murine light chains) (antibody)”: the % of cells in the SOSIP-positive gate in [18] was 1.59% and 1.47% and 1%.

In the case of “B-cell receptors of primary murine B cells edited to express the PG9 HCDR3 (antibody)”, in experiment [7], the % of cells in the SOSIP gate was 1.49%.

These data come from patent US20260117259A1.
